The values below come from article PMC4772626.

Where “and” joins values, the source holds several entries; their conditions need not be identical. Equal entries are not always repeated.

The assay has as its target SMV helper component protease tagged with the Flag epitope at the N-terminus (soybean mosaic virus strain G7H). The assay is described as follows: affinity purification with mass spectrometry; crude extract of upper symptomatic soybean leaves at 15 dpi (20 mM Tris-HCl pH 7.5, 300 mM NaCl, 5 mM MgCl2, 5 mM dithiothreitol, 0.5% Triton X-100); anti-Flag antibody-conjugated agarose beads 16 h at 4 °C, five washes; 10% SDS-PAGE, Coomassie blue, dominant bands excised and identified by LC-MS/MS; Flag-tagged GFP as negative control.

Take “SMV helper component protease tagged with the Flag epitope at the N-terminus (natural protein)”: the stoichiometry N was 4 and 2.

Broadly, the stoichiometry N is the number of molecules, sites or subunits per partner or assembly.
